This is an account of results in a protein production outcome set (Wang et al. 2014).
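Note: failed if final PepcDB status was selected cloned or expressed and not failed if soluble or beyond.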

A short description of this series: label from the status in PepcDB records.
For the sequence “MAPPTAAPEPNTVPETSPTGHRMFSRIRLATPTDVPFIHKLIHQMAVFERLTHLFVATESGLASTLFNSRPFQAVTVFLLEISPSPFPTTHDASSPDFTPFLETHKVDLPIEDPDREKFLPDKLNDVVVAGFVLFFPNYPSFLAKQGFYIEDIFMREPYRRKGFGKLLLTAVAKQAVKLGVGRVEWIVIDWNVNAINFYEQMGAQVFKEWRLCRLTGDALQAIDKLNI”, the protein production result is listed as “failed”.

Take “SAKDPLAEAGLHFDELNKLRVLEPDVSQKTTELKEECEEFVDKIGQFQKIVGGLIELVDELAKEAETEKMKAIGARNLLKSVEKQREAQHQQLQALIAEKKMQLERYRIEYEALQKVEAEQSEFIDQFILQK”: the protein production result is “failed”.

For “MKFKTRDLVLIPLFTAMTIIGAFIKIPVGVVPINLQFLFTALSGVLLGGALGAVSQILYVALGLIGLPVFTSGGGLSYIFTPTFGYLIGYILAAFIIGKITHSRKPKFTTIFFSCILGLIAVYFIGTTYLYIILNYVAGKNVSIIASIKLGVLMFIPGDIVKCIITALLGSRILPILNKTSLNN”, the protein production entry is given as “failed”.

As for “MWAGMYPSQPDQVKSKPTYILNYFINPMTGSDILGLLMVYVYVAVLLLVSERFLGDRPNLSRKFVHIMVGNILFILPLFESRLVITFLAAAPFILITFLLSPYSPLRVKHRASSYGHGLGLVYYSISWTILAYLFFEAPWITGIGIAAMSYGDGFASLTGERFGRTTFSVLGDKKSLEGSLGMFIILLVMLPVVLTYYSQGFTPYLILGVALVSTVLEALTPRGLDNLTACFGAVAAYILLGGMGI”, the protein production entry is “failed”.

For “MRDALLGALDAGAVCVNVDLAHAGQQAKLEPDTPYGDALGVGAGRNWAHVNSIAYDAKDDSIILSSRHQGIVKIGRDKQVKWILAPSKGWNKQLASKLLKPVDDHGKPLTCDENGKCKDTDFDFTYTQHTAWLSSKGTLTVFDNGDGRGLEQPALPTMKYSRFVEYKIDEKKGTVQQVWEYGKERGYDFYSPITSVVEYQKDRDTMFGFGGSINLFDVGKPTVGKLNEIDYKTKEVKVEIDVLSDKPNQTHYRALLVHPTQMFKLEHHHHHH”, the protein production result is “not failed”.

Turning to “MLVKININGKKKSVDIEPEEYLVDTLRKVGNLSVKRGCDTGCCGLCTVLIDKKPTLSCATLTLRALDKEITTIEGLENEVKEFSEVLVKEGAEQCGFCSPGFILTVLAMKDELENPTDDEIKHYLTGNLCRCTGYMGQLRAIKTYLEVK”, the protein production entry is on record as “failed”.

In the case of “MRDALHVTADDADATDDAIPDSRETGVTGVVLAGGLSTRLGHDKAVIRLHGEQGPDLLVRTAALLEPLVDEVWISCRPGRCVTGPYLRIYDEVQGLGPFGGVMTALRAAQGPVLVLSCDLPFMERTLLERLLERRGARHPEALMTTFRQEETGFIESLVAVYEYACLPFFEDALTDGVHKLSRVIPAERREDIVYTQNEALPFFNVNYPADLEMARRIIGALLEHHHHHH”, the protein production entry is recorded as “failed”.

Take “MSFASETKKELTHMDVSDSDAKVELAAFIRMNGAISFSNQLVIMDVQTENAAIARRMYQLLKDLYEVPIELLVRRKMKLKKNNVYIVRLKSGTRGILEDLRILEPPMTFTKSIDRGFVKKRSAKRAYLRGAFLASGSVNNPETSSYHLEIFSVYEEHNEAICALMNQFDLNARTLERKNGFITYLKEAEKITEFLSIIGATSALLHFEDVRIMRDMRNSVNRLVNCETANLNKTINAAVRQIDNIKYIQSTVGLEALPERLREIAALRIANEDVTLKELGEMLTTGQVSKSGINHRLRKLDQIAERLRSGETPAQVGLKVSNS”: the protein production result is recorded as “failed”.

“MRDRRAPSPCGWRSGRNDLRPARLDLAISAAMRTNSAPQPEGDADQPPSPSTPPAGPPPRRRFGFARRLLAPVLSPVAHYARRYLQASVEHELRQTQGQLHALSAELNAAQARIDHNRELMHLMLQQQQASAVAMQSVLAQLARIEGHSARAEDHGIRIEGLSRKLDGDIAGLPGVFGPRFDELEIKQRPLIAYDDESMAIRMRDGYVLAPRNLPTFVTMLANATSRGLEPGTGDVLRRLVQPGMVVADVGANIGLLTLVMAWATGPGGRVIAFEPEAIPRSNLEKMKHLNGLSWVEVRDQAVGERAGRLTFHVSDIIGHSSLYALPDAEEARTVEVEVVRLDDVAPAKRLDVVKIDVEGAELDVLAGMKGVIAKNPDLAIIAEFGPEHLARVGQTPVQWFKAFGDAGFKAYMINETSGDCEPTSAKAATTVVSANIAFVRAGGDAEMRLLGR”: the protein production result is “failed”.

Consider “MAKFIMVVGTSSNSGKTVLVSGICRMLSNKGYKVAPFKSQNMSLNSRVSVEDGEIAVAQYTQAMAARAEPSVHFNPILLKPKGNFVSQVIVHGNPYEDKDYNEYRSKKDDFLVKIKESIDYLDKNYDYVVIEGAGSCCEINLLNDDIANLKVAEIAGADAILVSDIDRGGVFASIYGTVQLLPENWKKLLKGFVINKFRGNIDVLKDGFEKIEELTNIPVIGTIPYDETLVLPEEDSQALDGKRLEHHHHHH”, for which the protein production result was “failed”.

For the sequence “MDKYRLLLLGGGRGLFDIDEDFMHWIDEFIEEHSNSIEITIVTGKNKKLYDNLTHKKPLKNIKVLGFVNDMYNLIRECDLMLTKPGGATIFEAIQSQTPVLVKMPKVGQEIENAKFIIDKGLGMIYSDDLDLKNIFYKLVSNEFDSIINFMKKNLKEFKTVIHPEKIADYISELIDNHLEHHHHHH”, the protein production result was “failed”.

Consider “MATLTEDDVLEQLDAQDNLFSFMKTAHSILLQGIRQFLPSLFVDNDEEIVEYAVKPLLAQSGPLDDIDVALRLIYALGKMDKWLYADITHFSQYWHYLNEQDETPGFADDITWDFISNVNSITRNATLYDALKAMKFADFAVWSEARFSGMVKTALTLAVTTTLKELTP”, for which the protein production entry is reported as “not failed”.

With “MDPEETSVYLDYYYATSPNSDIRETHSHVPYTSVFLPVFYTAVFLTGVLGNLVLMGALHFKPGSRRLIDIFIINLAASDFIFLVTLPLWVDKEASLGLWRTGSFLCKGSSYMISVNMHCSVLLLTCMSVDRYLAIVWPVVSRKFRRTDCAYVVCASIWFISCLLGLPTLLSRELTLIDDKPYCAEKKATPIKLIWSLVALIFTFFVPLLSIVTCYCCIARKLCAHYQQSGKHNKKLKKSIKIIFIVVAAFLVSWLPFNTFKFLAIVSGLRQEHYLPSAILQLGMEVSGPLAFANSCVNPFIYYIFDSYIRRAIVHCLCPCLKNYDFGSSTETSDSHLTKALSTFIHAEDFARRRKRSVSL”, the protein production result is given as “failed”.

Consider “MTFNALRPVASKVIDPLADFFIRYEVSPDTVSIVSLICAFFAGLSFYYSPAYQELALLAGILVVFNSLFDALDGVIARKSNRATPRGDFLDHVIDRYSDVFIICSIFFAGYVSWQIGVAAIVGVLLTSYLGTQAQALNLGRYYGGIMGRADRLVVIILAAFANSVYPASIAGFPILGWAVILIAVTSHITAIQRIMYIWRRLD”, for which the protein production entry was “failed”.

On to “GQEYRALPGADTGRPDLDRSYALVYPAPRPKALLLLVPGLLGGSTNFALLAERLRAMAPGLEVWAWERRANGLEDRRGFLREDPVAYYRALALPDLTPLRAWGLEVHLKDLDLAVEAARARAPVVLAGHSLGAALAGLYALLHGEKLSGLVLLDGAPGVVPLAEEAFYEGADLPFGRLVGYRAFLRGEGSPAVELLGLGPKALALAEAEAFLAAKRPEEDLPFGPYRATREALALLRVDDDYSLFPVFSVSAGRAWAREGFSLLGLLQGRLVRTVRGPRAGPIAWRDTGEATDPRAFLRAFALPETGFSEWYFPYRLLLEVGGYPYVLRGLKPRALPYPVLALGAGRGLYPRAEDFRLGELFPGTEARAQVLPGLTHLDLLTEREGRTAGLLLRYLQDL”, for which the protein production entry is on record as “failed”.

As to “MHHLILGYGYCGYYLAQELLGHHQQVTVVSRQLKKELELSKLQHISHDLEYPFHWSEPDSIIYYLIPPPSQGTCDTFLQQFLNQSSLNAKKIIYFGSSGVYGNHQGAWVDELSACIIDSPRQQRRLDAEQQWLAYCQQHNKELSLLRIAGIYGPNRIPADAAKSKIPIIKPTEAPFTNHIFVKDLALIAYLLGQKQTTSAVYNVADGNPTHMGELQQTVANALGIESASYESFEQAWEKASPMKREFMRASKRLKIDLLKTALGEDIQFTSLYDAVKQSL”, the protein production entry is recorded as “failed”.

As for “MDVEPGKFYKGVVTRIEKYGAFINLNEQVRGLLRPRDMISLRLENLNVGDEIIVQAIDVRPEKREIDFKYIPLTTYDLVKYEKEVPLSQIKDISQNLEHHHHHH”, the protein production result is reported as “not failed”.
